Measurements as given in the Human Domainome abundance scans (Beltran et al. 2025).
± gives the uncertainty stated by the source.

B1: Zinc finger homeobox protein 4, residues 2183 to 2238; numbered along this chain, Q86UP3 (parent)
chain: SSRTRFTDYQLRVLQDFFDTNAYPKDDEIEQLSTVLNLPTRVIVVWFQNARQKARK

Variants of: B1
Assay: abundance fitness (aPCA) (normalised: wild type 0, dead -1); higher = more abundant; growth selection in yeast, the domain comes from the species named
Details: Homo sapiens

Abundance fitness, by site and new letter:
S2: W -0.477 ± 0.17; Y -0.07 ± 0.14
R3: A 0.358 ± 0.083; C 0.484 ± 0.099; D 0.343 ± 0.14; E 0.201 ± 0.11; F 0.32 ± 0.2; G 0.297 ± 0.065; H 0.367 ± 0.12; I 0.489 ± 0.16; K 0.31 ± 0.12; L 0.358 ± 0.089; M 0.344 ± 0.12; N 0.364 ± 0.13; P 0.09 ± 0.12; Q 0.053 ± 0.11; T 0.368 ± 0.13; V 0.334 ± 0.08; W 0.253 ± 0.094; Y 0.198 ± 0.16
T4: A -0.698 ± 0.14; C -0.446 ± 0.13; D 0.015 ± 0.16; E -0.368 ± 0.13; F -0.182 ± 0.16; G -0.328 ± 0.092; H 0.096 ± 0.13; K -0.571 ± 0.15; L 0.072 ± 0.083; M 0.392 ± 0.11; N 0.047 ± 0.14; P -0.109 ± 0.11; Q -0.269 ± 0.16; R -0.533 ± 0.08; S 0.019 ± 0.087; V -0.602 ± 0.11; W -0.433 ± 0.12; Y 0.323 ± 0.16
R5: C 0.272 ± 0.11; D 0.338 ± 0.29; E 0.218 ± 0.22; G -0.109 ± 0.11; H 0.194 ± 0.15; I 0.238 ± 0.13; K 0.195 ± 0.2; L 0.193 ± 0.1; M 0.309 ± 0.15; N 0.358 ± 0.14; P 0.001 ± 0.12; Q -0.241 ± 0.24; T 0.22 ± 0.13; V 0.133 ± 0.13; W -0.11 ± 0.17; Y 0.213 ± 0.15
F6: A -0.654 ± 0.1; C -0.094 ± 0.095; D -0.09 ± 0.12; E -0.344 ± 0.17; G -0.335 ± 0.092; H -0.328 ± 0.11; I -0.09 ± 0.091; K -0.522 ± 0.17; L -0.122 ± 0.071; M 0.111 ± 0.1; N -0.375 ± 0.11; P -0.697 ± 0.1; Q -0.568 ± 0.13; R -0.726 ± 0.099; T -0.266 ± 0.086; V -0.133 ± 0.078; W -0.257 ± 0.13; Y -0.124 ± 0.1
T7: A -0.14 ± 0.11; C -0.586 ± 0.17; D -0.081 ± 0.18; G -0.333 ± 0.086; H -0.597 ± 0.41; K -0.455 ± 0.18; L -0.384 ± 0.12; M -0.278 ± 0.14; P -0.368 ± 0.16; Q -0.27 ± 0.17; R -0.67 ± 0.093
